molecular target: T1, Cynomolgus TNFR2-His (Sino 90102-C08H) (cynomolgus monkey, UniProt A0A2K5VET2 132-366); experiment: ELISA, cynomolgus TNFR2-His coated; EC50 against 224-WT
T1 construct: Bought protein; also called cynomolgus monkey TNFR2; recombinant cynomolgus monkey TNFR2 protein; not shown: His tag
T1 sequence: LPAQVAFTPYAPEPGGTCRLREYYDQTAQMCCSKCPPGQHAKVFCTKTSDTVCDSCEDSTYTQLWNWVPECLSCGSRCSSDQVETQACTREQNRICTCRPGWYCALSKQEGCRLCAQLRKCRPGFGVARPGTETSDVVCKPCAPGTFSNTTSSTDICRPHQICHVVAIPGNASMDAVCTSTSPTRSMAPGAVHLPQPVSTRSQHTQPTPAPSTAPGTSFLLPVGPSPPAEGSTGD
Procedure: The test humanized antibody against TNFR2 (as described in Example 1, the antibody was comprised of variable regions linked to IgG-Fc; the WT chimeric antibody also adopted the IgG-Fc structure) was subjected to 3.33-fold gradient dilution, loaded with 100 μl/well, and incubated with shaking at room temperature for 1.5 hours. The plate was washed, and then a working solution of murine anti-human IgG Fc-HRP (diluted at 1:10000) was added, loaded with 100 μl/well, and incubated with shaking at room temperature for 1.0 hour. The plate was washed again, and then the substrate TMB of HRP was added to develop colour. A stop solution was added to stop the reaction, and then a microplate reader (MD 13) was used to read the absorbance value. The binding curve of an antibody was drawn with antibody concentration as the abscissa and corresponding OD value as the ordinate, and fitted with four parameters (GraphPad Prism9) to calculate the EC50 value. The smaller the EC50 value, the stronger the binding ability of an antibody to human/cynomolgus monkey TNFR2. The binding effect of a humanized antibody was normalized to its corresponding human-murine chimeric antibody WT (see SEQ ID NOs: 38-43 for the sequence). The higher the percentage value, the better the binding effect of the humanized antibody. The results of binding of an anti-TNFR2 antibody to a human TNFR2 protein are shown in FIG. 1 and Table 4, and the results of binding of an anti-TNFR2 antibody to cynomolgus monkey TNFR2 are shown in FIG. 2 and Table 4.

| Binder | % Relative activity (WT antibody/test antibody) |
| --- | --- |
| 224-Hu1 (antibody, V domains shown, Humanized form of #224; also called VH8 + VL6) VH: QVQLVQSGAEVKKPGASVKVSCKASGFNNKDIYMHWVRQAPGQGLEWIGRIDPATGNTKHDPKFQDRVTMTSDTSTNTVYMELSSLRSEDTAVYYCARSPYGDFGAMDYWGQGTLVTVSS VL: DIQMTQSPSSLSASVGDRVTITCTASSSVSSNYLHWYQQKPGKAPKLWIYSTSNLPSGVPSRFSGSGSGTDFTLTISSLQPEDFATYYCHQYHRSPWTFGQGTKVEIK | 105% |
| 224-Hu7 (antibody, V domains shown, Humanized form of #224; also called VH9 + VL10) VH: QVQLVQSGSELKKPGASVKVSCKASGFNNKDIYMHWVRQAPGQGLEWMGRIDPATGNTKHDPKFQDKAVLSSDTSVSTAYLQISSLKAEDTAVYYCARSPYGDFGAMDYWGQGTLVTVSS VL: DIQMTQSPSSLSASVGDRVTITCTASSSVSSNYLHWYQQKPGKAPKLLIYSTSNLPSGVPSRFSGSGSGTDFTLTISSLQPEDFATYYCHQYHRSPWTFGQGTKVEIK | 116% |
| 224-Hu6 (antibody, V domains shown, Humanized form of #224; also called VH8 + VL7) VH: QVQLVQSGAEVKKPGASVKVSCKASGFNNKDIYMHWVRQAPGQGLEWIGRIDPATGNTKHDPKFQDRVTMTSDTSTNTVYMELSSLRSEDTAVYYCARSPYGDFGAMDYWGQGTLVTVSS VL: DIQMTQSPSSLSASVGDRVTITCTASSSVSSNYLHWYQQKPGSSPKLWIYSTSNLPSGVPSRFSGSGSGTDFTLTISSLQPEDFATYYCHQYHRSPWTFGQGTKVEIK | 104% |
| 224-Hu4 (antibody, V domains shown, Humanized form of #224; also called VH9 + VL6) VH: QVQLVQSGSELKKPGASVKVSCKASGFNNKDIYMHWVRQAPGQGLEWMGRIDPATGNTKHDPKFQDKAVLSSDTSVSTAYLQISSLKAEDTAVYYCARSPYGDFGAMDYWGQGTLVTVSS VL: DIQMTQSPSSLSASVGDRVTITCTASSSVSSNYLHWYQQKPGKAPKLWIYSTSNLPSGVPSRFSGSGSGTDFTLTISSLQPEDFATYYCHQYHRSPWTFGQGTKVEIK | 108% |
| 224-Hu3 (antibody, V domains shown, Humanized form of #224; also called VH9 + VL8) VH: QVQLVQSGSELKKPGASVKVSCKASGFNNKDIYMHWVRQAPGQGLEWMGRIDPATGNTKHDPKFQDKAVLSSDTSVSTAYLQISSLKAEDTAVYYCARSPYGDFGAMDYWGQGTLVTVSS VL: DIQMTQSPSSLSASVGDRVTITCTASSSVSSNYLHWYQQKPGKAPKLLIYSTSNLPSGVPSRFSGSGSGTDFTLTISSLQAEDAATYYCHQYHRSPWTFGQGTKVEIK | 108% |
| 224-Hu2 (antibody, V domains shown, Humanized form of #224; also called VH9 + VL7) VH: QVQLVQSGSELKKPGASVKVSCKASGFNNKDIYMHWVRQAPGQGLEWMGRIDPATGNTKHDPKFQDKAVLSSDTSVSTAYLQISSLKAEDTAVYYCARSPYGDFGAMDYWGQGTLVTVSS VL: DIQMTQSPSSLSASVGDRVTITCTASSSVSSNYLHWYQQKPGSSPKLWIYSTSNLPSGVPSRFSGSGSGTDFTLTISSLQPEDFATYYCHQYHRSPWTFGQGTKVEIK | 109% |
| 224-Hu5 (antibody, V domains shown, Humanized form of #224; also called VH9 + VL9) VH: QVQLVQSGSELKKPGASVKVSCKASGFNNKDIYMHWVRQAPGQGLEWMGRIDPATGNTKHDPKFQDKAVLSSDTSVSTAYLQISSLKAEDTAVYYCARSPYGDFGAMDYWGQGTLVTVSS VL: DIQMTQSPSSLSASVGDRVTITCTASSSVSSNYLHWYQQKPGKAPKLLIYSTSNLPSGVPSRFSGSGSGTDYSLTISSLQPEDFATYYCHQYHRSPWTFGQGTKVEIK | 106% |

molecular target: T2, human TNFR2 (Novoprotein, Cat #C830) (human, UniProt P20333 23-257, limits assumed); experiment: competition ELISA, competitor human TNFα-Biotin; AUC against 001-WT
T2 construct: construct not described; also called human TNFR2 protein
T2 sequence (looked up): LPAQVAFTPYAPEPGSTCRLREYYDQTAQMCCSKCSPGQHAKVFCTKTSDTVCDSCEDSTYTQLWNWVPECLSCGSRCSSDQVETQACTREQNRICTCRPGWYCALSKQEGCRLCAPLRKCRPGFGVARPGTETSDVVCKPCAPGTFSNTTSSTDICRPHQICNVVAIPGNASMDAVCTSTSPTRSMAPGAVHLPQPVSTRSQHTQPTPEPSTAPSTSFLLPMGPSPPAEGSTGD
Procedure: 1 μg/ml human TNFR2 (Novoprotein, Cat #C830) was pre-coated with 100 μl/well […] in an ELISA plate. All the test TNFR2 antibodies were subjected to 2.5-fold gradient dilution from the highest concentration of 30 μg/ml; the diluted antibodies were mixed with 15 ng/ml human TNFα-Biotin (Acro Biosystem, Cat #TNA-H82E3) in equal volume, respectively; the resulting mixture was added to the ELISA plate at 100 μl/well, and incubated with shaking at room temperature for 2.0 hours. The plate was washed, and then a Streptavidin-HRP working solution (diluted at 1:10000) was added at 100 μl/well, and the mixture was incubated with shaking at room temperature for 40 minutes. The plate was washed again, and then the substrate TMB of HRP was added to develop colour. A stop solution was added to stop the reaction, and then a microplate reader (MD 13) was used to read the absorbance value. The inhibitory curve of an antibody was drawn with antibody concentration as the abscissa and corresponding OD value as the ordinate, and fitted with four parameters (GraphPad Prism9) to calculate the IC50 value. The smaller the IC50 value, the stronger the ability of an antibody to inhibit the binding of human TNFα to human TNFR2. The blocking effect of a humanized antibody was normalized to its corresponding human-murine chimeric antibody WT. The higher the percentage value, the better the inhibitory effect of the humanized antibody.

| Binder | % Relative activity (WT antibody/test antibody) |
| --- | --- |
| 001-Hu5 (antibody, V domains shown, Humanized form of #001; also called VH1 + VL4) VH: EVQLVESGGGLVQPGGSLRLSCAASGFAFSTYDLSWVRQAPGKGLEWVAYINNGGISTYYSDTVKGRFTISRDNAKNTLYLQMNSLRAEDTAVYYCVRGPFYGSANYFDYWGQGTLVTVSS VL: DIQMTQSPSSLSASVGDRVTITCRTSESIYSNLPWYQQKPGKSPKLLVYDATKLAEGVPSRFSGSGSGTDYTLTISSLQPEDFATYYCQHFWVTPWTFGQGTKVEIK | 98% |
| 001-Hu4 (antibody, V domains shown, Humanized form of #001; also called VH2 + VL4) VH: EVQLVESGGGLVQPGGSLRLSCAASGFAFSTYDLSWVRQAPGKGLEWVAYINNGGISTYYSDTVKGRFTISRDNAKNSLYLQMNSLRAEDTAVYYCVRGPFYGSANYFDYWGQGTLVTVSS VL: DIQMTQSPSSLSASVGDRVTITCRTSESIYSNLPWYQQKPGKSPKLLVYDATKLAEGVPSRFSGSGSGTDYTLTISSLQPEDFATYYCQHFWVTPWTFGQGTKVEIK | 101% |
| 001-Hu2 (antibody, V domains shown, Humanized form of #001; also called VH2 + VL2) VH: EVQLVESGGGLVQPGGSLRLSCAASGFAFSTYDLSWVRQAPGKGLEWVAYINNGGISTYYSDTVKGRFTISRDNAKNSLYLQMNSLRAEDTAVYYCVRGPFYGSANYFDYWGQGTLVTVSS VL: DIQMTQSPSSLSASVGDRVTITCRTSESIYSNLPWYQQKPGKSPKLLIYDATKLAEGVPSRFSGSGSGTDFTLTISSLQPEDFATYYCQHFWVTPWTFGQGTKVEIK | 97.1% |
| 001-Hu1 (antibody, V domains shown, Humanized form of #001; also called VH1 + VL1) VH: EVQLVESGGGLVQPGGSLRLSCAASGFAFSTYDLSWVRQAPGKGLEWVAYINNGGISTYYSDTVKGRFTISRDNAKNTLYLQMNSLRAEDTAVYYCVRGPFYGSANYFDYWGQGTLVTVSS VL: DIQMTQSPSSLSASVGDRVTITCRTSESIYSNLPWYQQKPGKAPKLLLYDATKLAEGVPSRFSGSGSGTDYTLTISSLQPEDFATYYCQHFWVTPWTFGQGTKVEIK | 98% |
| 001-Hu3 (antibody, V domains shown, Humanized form of #001; also called VH1 + VL3) VH: EVQLVESGGGLVQPGGSLRLSCAASGFAFSTYDLSWVRQAPGKGLEWVAYINNGGISTYYSDTVKGRFTISRDNAKNTLYLQMNSLRAEDTAVYYCVRGPFYGSANYFDYWGQGTLVTVSS VL: DIQMTQSPSSLSASVGDRVTITCRTSESIYSNLPWYQQKPGKAPKLLIYDATKLAEGVPSRFSGSGSGTDYTLTISSLQPEDFATYYCQHFWVTPWTFGQGTKVEIK | 99.4% |
